Results as given in US20180282402A1.
Changes are numbered by the printed parent chain.

B1: AB04-439 (antibody, V domains shown)
VH: QVQLVESGGGLVKPGGSLRLSCAASGFTFSDYYMTWIRQAPGKGLEWVSYISGSFRYTNYADSVKGRFTISRDNAKNSLYLQMNSLRDEDTAVYFCARYVYQVVAIGDLWGQGTLVTVSS
VL: DIQMTQSPSSVSASVGDRVTITCRASQGISSWLAWYQQKPGRAPKLLIFAASSLQSGVPSRFSGSGSGTHFTLTISSLQPEDFATYYCQQAESFPYTFGQGTKLEIK
B2: AB13-288 (IgG1m(zf) kappa) (antibody, V domains shown)
VH: QVQLVESGGGLVKPGGSLRLSCAASGFTFSDYYMSWIRQAPGKGLEWVSYISDKSRYTKYTDKVRGRFTISRDNAKNSLYLQMNSLRAEDTAVYYCARYLYQVIAIADAWGQGTLVTVSS
VL: B1 VL with Y36F, R42K, A50V, S53N, Q55E, H70D
B3: AB13-112 (IgG1m(za) kappa) (antibody, V domains shown)
VH: B2 VH
VL: B1 VL with Y36F, R42K, A50V, S53N, Q55E, H70D
B4: AB13-288 (IgG4-2 kappa) (antibody, V domains shown)
VH: B2 VH
VL: B1 VL with Y36F, R42K, A50V, S53N, Q55E, H70D
B5: AB13-112 (IgG4 kappa) (antibody, V domains shown)
VH: B2 VH
VL: B1 VL with Y36F, R42K, A50V, S53N, Q55E, H70D
B6: AB13-433 (antibody, V domains shown)
VH: B2 VH with K54S, R56T, K59N, K63S, I106V, A109S
VL: B1 VL with Y36F, R42K, F49Y, A50V, S53N, Q55E, H70D, E92N
B7: KL31-241 (antibody, V domains shown)
VH: QVQLVQSGAEVKKPGASVKVSCKASGYTFTDYCIGWIRQAPGQGLEWMGDICPGDAYTNDNEKFKDRATMTADTSTSTAYMELSSLRSEDTAVYYCARGEEQLGLRNAMDYWGQGTSVTVSS
VL: DIVMTQSPDSLAVSLGERATINCQSQSVSTSTYNYMHWYQQKPGQPPKLLIKYASNLESGVPDRFSGSGSGTDFTLTISSLQAEDVATYYCQHSWEIPWTFGGGTKLEIK
B8: KL31-532 (antibody, V domains shown)
VH: B7 VH with A56T, S117L
VL: B7 VL with Q92G, W95Y, L107V

What follows are binders tested against Cyno HARS (cynomolgus monkey (Macaca fascicularis)) (assay: SPR (ProteOn); HRS protein immobilized, antibody as analyte).

Row | Kd [nM] | Binder
1 | 0.075 | B1
2 | 0.002 | B2
3 | < 0.001 | B3
4 | 0.028 | B4
5 | < 0.001 | B5
6 | 0.24 | B6
7 | 1.2 | B7
8 | 0.056 | B8
